Residue numbers refer to the chain shown, from its start.
B1: PGEG-hAGT: an AGT containing the mutations Asn157Gly, Ser159Glu (Juillerat et al., Chem Biol 10:313-317, 2003) (protein, UniProt P16455 1-207, looked up, variant N157G S159E)
Methylated-DNA--protein-cystei …: MDKDCEMKRTTLDSPLGKLELSGCEQGLHEIKLLGKGTSAADAVEVPAPAAVLGGPEPLMQCTAWLNAYFHQPEAIEEFPVPALHHPVFQQESFTRQVLWKLLKVVKFGEVISYQQLAALAGNPKAARAVGGAMRGNPVPILIPCHRVVCSSGAVGGYEGGLAVKEWLLAHEGHRLGKPGLGGSSGLAGAWLKGAGATSGSPPAGRN
B2: AGT (Gly160Trp): Human AGT mutant Gly160Trp (Xu-Welliver et al.); expressed as AGT-NLS3 fusion (protein, UniProt P16455 1-207, looked up, variant G160W)
Methylated-DNA--protein-cystei …: B1 Methylated-DNA--protein-cystei … with G157N, E159S, G160W
modifications: NLS3 fusion
B3: Lys125Ala, Ala127Thr, Arg128Ala, Asn157Gly, Ser159Glu: hAGT mutant with the listed mutations, expressed as GST fusion (protein, UniProt P16455 1-207, looked up, variant K125A A127T R128A N157G S159E)
Methylated-DNA--protein-cystei …: B1 Methylated-DNA--protein-cystei … with K125A, A127T, R128A
modifications: GST fusion

Columns and labels:
[1] = test system: oligonucleotide SEQ ID NO:2 (modified in position 14); assay: Reactivity against DNA-based substrates (BG-Cy3 assay with BG-modified oligonucleotide); assay type: biochemical; details: 0.5 µM (or more) BG-modified oligonucleotide
Procedure: The ability of wild type AGT or mutant AGT to react with alkylated DNA substrates is measured as the reaction of its inactivation by a synthetic oligonucleotide containing O^6-benzylguanine (SEQ ID NO:2, modified in position 14). Subsequently, the reactions are quenched by incubation with biotinylated O^6-alkylguanine. Samples are subjected to Western blotting and detection with streptavidin derivates to obtain kinetic constants for these substrates. Alternatively, the ability of wild type or mutant AGT to react with alkylated DNA substrates is measured via its labeling efficiency in competition with a fluorescent substrate of AGT. The reaction kinetics of AGT with BG-Cy3 (O^6-benzylguanine coupled to Cy3) is followed by fluorescence intensity measurements at various concentrations of a competing synthetic oligonucleotide containing O^6-benzylguanine (SEQ ID NO:2, modified in position 14).
Reactivity against DNA-based substrates measured with a BG-Cy3 assay: BG-Cy3 is prepared by reacting the previously described O^6-(4-aminomethyl-benzyl)guanine (Keppler et al., NatureBiotechnol. 21:86-89, 2003) with the commercially available N-hydroxysuccinimide ester of Cy3, (Cy3-NHS, Amersham). The coupling reaction is performed at ambient temperature in N,N-dimethylformamide in the presence of 1 eq. of triethylamine. The BG-Cy3 conjugate is purified by reversed-phase HPLC on a C18-column by using linear gradients from 0.1% trifluoroacetic acid to acetonitrile. After solvent evaporation BG-Cy3 is dissolved in dimethyl sulfoxide and stored at −20° C. For measuring the reactivity with DNA-based substrates, a reaction mixture containing different concentrations (0 to 5 µM) of oligonucleotide SEQ ID NO:2 (modified in position 14), GST-AGT fusion protein at 0.2 µM and BG-Cy3 at […] in reaction buffer (50 mM HEPES, pH 7.2, 1 mM DTT, 200 mg/ml BSA) is incubated in microtiterplates. Fluorescence of the Cy3 derivative (excitation 519 nm, emission at 572 nm) is measured on a Spectramax Gemini plate reader (Molecular Devices).

salmon sperm DNA = assay: DNA binding as inhibition by DNA of the reaction with BG-Cy3; details: salmon sperm DNA 25 µg/ml
Procedure: (§1) The interaction with DNA is e.g. quantified by assessing the amount of copurified DNA from E. coli extracts under conditions of low salt and absence of DNase. This is compared between parallel purifications of fusion proteins (e.g. fusions to GST) of wild type (human) and mutant AGT by spectroscopic methods (ratio of absorbance at 260 and 280 nm). Alternatively the interaction of AGT with DNA is measured as the inhibition of AGT reactivity with BG-Cy3 (O^6-(4-aminomethyl-benzyl)-guanine coupled to Cy3) as substrate in the presence of DNA. This approach takes advantage of a marked increase of fluorescence of the Cy3 fluorophore upon reaction of BG-Cy3 with AGT. The reaction kinetics of AGT with a Cy3-labeled benzylguanine derivative is followed by fluorescence intensity measurements over several hours at various concentrations of salmon sperm DNA.
DNA binding: DNA binding is measured as inhibition by DNA of the reaction of AGT mutants with BG derivatives. The reaction rate of AGT mutants in a reaction mixture containing salmon sperm DNA (25 µg/ml) instead of oligonucleotide is measured with the BG-Cy3 assay. The reaction rate is determined by fitting the obtained data to a monoexponential increase to maximum.

[2] = Reactivity towards N^9-modified O^6-benzylguanine derivatives (preblocking, BG-Cy3 assay); assay type: biochemical; details: 100 µM N^9-isobutyl-, N^9-propyl-, N^9-cyanomethyl-O^6-benzylguanine, 15 min
Procedure: FIG. 3: Reactivity of AGT mutants with N^9-modified BG derivatives. 10 µM AGTM (grey bars) or PGEG-hAGT (black bars) were preblocked with 100 µM N^9-modified BG derivatives (see list below), and subsequently labeled with 20 µM BG-Cy3. After 1 h reaction time, fluorescence intensity (FI) indicated in arbitrary units [a.u.] at 595 nm is measured. The black bold line is set at the reading for condition 1 corresponding to background fluorescence of the fluorophore not attached to protein. Values above this line indicate slow or incomplete reaction with N^9-modified BG-derivative. • 1 Fluorescence of BG-Cy3 without protein; background fluorescence. • 2 Reaction with BG-Cy3; no preblocking, positive control. • 3 Reaction with BG-Cy3, preblocked with 100 µM BG. • 4 Reaction with BG-Cy3, preblocked with 100 µM N^9-isobutyl-O^6-benzylguanine. • 5 Reaction with BG-Cy3, preblocked with 100 µM N^9-propyl-O^6-benzylguanine. • 6 Reaction with BG-Cy3, preblocked with 100 µM N^9-cyanomethyl-O^6-benzylguanine.
Reactivity of AGT towards N^9-modified O^6-benzylguanine derivatives: The experiment is based on the BG-Cy3 assay. Upon reaction of AGT with BG-Cy3, an increase of fluorescence emission intensity of Cy3 by a factor 2-3 can be observed. […]

[3] = compared to wild type hAGT; literature; cited from earlier work
CHO cells = assay: Selective labelling in cells after CPTG pre-incubation; assay type: cell-based; details: 5 µM CPTG 10 min, then 5 µM fluorescent substance 4 20 min
Source text: In a further experiment, the mutant AGTM as described in Example 6 is amplified with the primers SEQ ID NO:34 and SEQ ID NO:36 and cloned between the NheI and BgIII sites of the vector pEGFP-Nuc. The […]-galactosidase gene is amplified with the primers SEQ ID NO:37 and SEQ ID NO:38 and subcloned into this vector via BgIII/BamHI to result in a vector with an AGTM-[…]-Gal fusion gene. The hAGT gene is amplified by the principle described under Example 1 with the primers SEQ ID NO:39, SEQ ID NO:40, SEQ ID NO:34, and SEQ ID NO:35 and cloned via NheI/BgIII into pEGFP-Nuc to result in an AGT-NLS3 fusion gene coding for the mutation Gly160Trp. After transient expression of both AGT mutants in parallel, the cells are incubated with 5 µM CPTG for 10 min and subsequently with 5 µM of substance 4 of Juillerat et al., Chem Biol 10:313-317, 2003, for 20 min. The cells are washed and imaged as described under Example 1.

[4] = Activity assay with biotinylated O^6-benzylguanine (BG-Bt), Western blotting; assay type: biochemical; details: statement in words
Outline: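 Purified mutant GST-AGT (0.2 μM) reacted with 1 μM biotinylated O^6-benzylguanine in 50 mM HEPES pH 7.2, 1 mM DTT at room temperature. Time-point aliquots quenched with O^6-benzylguanine in SDS buffer. Biotinylated protein detected by Western blot with neutravidin-peroxidase, band intensity quantified.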

DNA = DNA binding in vitro (co-purified DNA, UV spectroscopy); design: species or system E. coli; details: co-purified DNA; compared to wild type hAGT or PGEG-hAGT
Procedure: as §1
For comparing the DNA binding properties of the protein in vitro, the harvested cells are resuspended, and the GST fusion protein is purified following the same method but in a buffer containing 50 mM phosphate, 0.1 M NaCl, 1 mM DTT. In the dialysed samples, the amount of subsequently co-purified DNA is estimated by UV spectroscopy. Spectra are recorded using a Perkin Elmer Lambda 10. The content of DNA corresponds to the ratio of the extinctions at 280 and 260 nm. […]

[5] = Stability after reaction with BG-FL; assay type: physicochemical; details: over 7 days
Procedure: Stability before reaction is determined for the mutant AGT or for a mutant AGT fusion protein by incubating purified samples in buffered aqueous solution for up to two weeks at 4° C. and up to six months at −20° C. At several time points, aliquots are taken and concentration of reactive AGT is estimated as described by Juillerat et al., Chem Biol 10:313-317, 2003. Stability for wild type AGT and the AGT mutant after reaction with a labelled substrate and after subsequent separation from unreacted substrate is determined by quantifying the concentration of the label in the soluble fraction over up to two weeks at 4° C. and up to three months at −20° C.
Stability after reaction: The vector pBAD/H is A (Invitrogen) is modified by cloning synthetic oligonucleotides (SEQ ID NO:29 and SEQ ID NO:30) between the NcoI and HindIII sites to include a 12×His-tag and SbfI and AscI cloning sites. The gene of AGTM is amplified with primers SEQ ID NO:31 and SEQ ID NO:32 and cloned between the SbfI/AscI sites into this vector. Wild type AGT and mutant AGT (Lys125Ala, Ala127Thr, Arg128Ala, Asn157Gly, Ser159Glu) are amplified with primers SEQ ID NO:31 and SEQ ID NO:33 and cloned into this vector. Protein expression is carried out in E. coli strain Top 10. An exponentially growing culture is induced with 0.2% arabinose, and the expression is carried out for 16 hours at 28° C. The cells are lysed by adding buffer to 10 ml/g containing 0.5 M NaCl, 80 mM imidazole, 1% Triton, 250 µM PMSF, 1 mM […]-mercaptoethanol, 5 mg/ml lysozyme, 20 µg/ml DNase and stirring for 45 min. […]
The AGT proteins at 10 µM) are quantitatively reacted with fluorescein-modified O^6-benzyl-guanine (substance 5 of Juillerat et al, Chem Biol 10:313-317, 2003, BG-FL, 20 µM) and purified over a size exclusion column (Econopac 10 DG, Bio-Rad) and incubated for 7 days. […] The fluorescence of the supernatant is measured with a Victor2 fluorescence plate reader (Perkin Elmer, excitation/emission at 485/535 nm).

| Molecule | activity in presence of BG-modified oligonucleotide [1] | reduction of reaction rate to BG-Cy3 in presence of DNA (salmon sperm DNA) | extent of reaction with N^9-modified BG derivatives [2] | activity against benzylguanine derivatives (factor) [3] | reaction with CPTG inside cells (CHO cells) | activity towards O^6-benzylguanine substrates [4] | DNA binding (DNA) | loss of soluble fluorescent protein [5] |
| --- | --- | --- | --- | --- | --- | --- | --- | --- |
| B1 | less than 3% | 5 fold | reacts efficiently | approximately 20 |  |  |  |  |
| B2 |  |  |  | somewhat more reactive | efficiently reacts with CPTG inside cells |  |  |  |
| B3 |  |  |  |  |  | retains activity | at least ten times reduced DNA binding | about 60% |
